From patent publication US20210347873A1 (SHANGHAI PHARMAEXPLORER, published 2021) come the findings set out here.

Substitutions are numbered along the chain they refer to.

Assay [1] concerns the target T1, human APRIL protein (human, UniProt O75888 105-250, limits assumed).
T1 construct: Bought protein; also called recombinant APRIL protein
T1 sequence (looked up): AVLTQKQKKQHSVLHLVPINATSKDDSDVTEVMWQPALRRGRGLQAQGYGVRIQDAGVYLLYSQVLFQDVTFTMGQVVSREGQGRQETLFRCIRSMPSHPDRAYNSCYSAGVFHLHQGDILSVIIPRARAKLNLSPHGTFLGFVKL
Briefly: ELISA, coated APRIL; antibody 0.534 nM. A digest of the protocol: (§1)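 OD450 values reflect BLyS antibody binding to immobilised human APRIL (1.0 μg/mL coat), detected via HRP-conjugated secondary and TMB with acid stop.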
Background: In an ELISA, binding on a coated surface is turned into a signal by an enzyme label.

Assay [2] deals with T1, human APRIL protein. In words: ELISA, coated APRIL; antibody 0.00427 nM. Summed up:
as §1

Assay [3] deals with T1, human APRIL protein. Briefly: ELISA, coated APRIL; antibody 0.0213 nM. Summed up:
as §1

The target of assay [4] is T2, cynomolgus BLyS (full length, arginine to histidine at position 132) on CHO-K1 cells (cynomolgus, UniProt Q9Y275 1-285 (human entry)).
T2 construct: also called cyno BLyS; CHO-K1 cynoBLyS
T2 chain: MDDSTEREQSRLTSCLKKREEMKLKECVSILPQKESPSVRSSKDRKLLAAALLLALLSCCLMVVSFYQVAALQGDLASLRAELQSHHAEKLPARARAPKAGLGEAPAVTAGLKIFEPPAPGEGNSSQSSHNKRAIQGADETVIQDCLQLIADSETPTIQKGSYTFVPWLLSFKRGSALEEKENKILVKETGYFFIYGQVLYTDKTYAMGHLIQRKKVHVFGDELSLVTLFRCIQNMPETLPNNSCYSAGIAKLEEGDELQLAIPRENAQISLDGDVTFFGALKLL
In words: flow cytometry, CHO-K1 cynoBLyS cells, antibody 0 nM. Background: A flow cytometer gives signals particle by particle.

For assay [5], the target named is T3, human BLyS (full length, arginine to histidine at position 132) on CHO-K1 cells (human, UniProt Q9Y275 1-285).
T3 construct: also called hBLyS; CHO-K1 hBLyS
T3 sequence (Q9Y275 whole entry R130H): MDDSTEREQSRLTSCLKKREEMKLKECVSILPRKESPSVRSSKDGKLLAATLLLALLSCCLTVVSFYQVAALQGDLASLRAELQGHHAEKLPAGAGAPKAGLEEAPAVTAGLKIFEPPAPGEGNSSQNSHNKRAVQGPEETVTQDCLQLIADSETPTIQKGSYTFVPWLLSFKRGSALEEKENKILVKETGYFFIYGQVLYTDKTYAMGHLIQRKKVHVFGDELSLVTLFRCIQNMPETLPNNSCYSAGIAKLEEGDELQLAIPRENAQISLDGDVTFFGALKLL
In words: flow cytometry, CHO-K1 hBLyS cells, antibody 2.67 nM.

The target in assay [6] is T3, human BLyS (full length, arginine to …). Briefly: flow cytometry, CHO-K1 hBLyS cells, antibody 0.534 nM.
Assay [7] deals with T2, cynomolgus BLyS (full length, arginine …). In words: flow cytometry, CHO-K1 cynoBLyS cells, antibody 66.7 nM.
The target of assay [8] is T3, human BLyS (full length, arginine to …). Briefly: flow cytometry, CHO-K1 hBLyS cells, antibody 0 nM.
Assay [9] has as its target T2, cynomolgus BLyS (full length, arginine …). In words: flow cytometry, CHO-K1 cynoBLyS cells, antibody 0.534 nM.
Assay [10] has the same target. Briefly: flow cytometry, CHO-K1 cynoBLyS cells, antibody 0.107 nM.
The target is the same in assay [11]. In words: flow cytometry, CHO-K1 cynoBLyS cells, antibody 0.0213 nM.
Assay [12] has the same target. Briefly: flow cytometry, CHO-K1 cynoBLyS cells, antibody 13.3 nM.

Regarding mIgG Control (antibody), the OD450 nm was 0.0536 in assay [1], 0.0587 in assay [2] and 0.0537 in assay [3].
Consider hIgG Control (antibody), for which the OD450 nm in assay [1] was determined as 0.0793; in assay [2], 0.0693; in assay [3], 0.0804.

B1: 2-1G11 (antibody, V domains shown)
VH: EVQLVESRGGVVQPGRSLRLSCAASGFTFSSYGMHWVRQAPGKGLEWVAVISYDGSNKYYADSVKGRFTISRDNSKNTLYLQMNSLRAEDAAVYYCARDRVDILTGYSIYGMDVWGQGTTVTVSS
VL: EIVMTQSPATLSLSPGERATLSCRASQSVSSYLAWYQQKPGQAPRLLIYDASKRATGIPARFSGSGSGTDFTLTISSLEPEDFAVYYCQQRSNWPLTFGGGTKVEIK
notes: From a human naive scFv phage library; also called human BLyS antibody 2-1G11
Regarding B1, the MFI in assay [4] was found to be 21.2 MFI; in [5] it was 627 MFI; in [6], 591 MFI; in assay [7] it was 1460 MFI; in [8], 186 MFI; in [9], 1400 MFI. Also, the MFI in assay [10] was found to be 816 MFI; in assay [11] it was 332 MFI; in [12] it was 1450 MFI.

B2: L9G7 (antibody, human IgG1, V domains shown)
VH: QIQLVQSGAEVKKPGASVKVSCKASGYTFTSYGISWVRQAPGQGLEWMGWISAYNGNTNYAQKLQGRVTMTTDTSTSTAYMELRSLRSDDTAVYYCARTYYDILTGYYYYGMDVWGQGTTVTVSS
VL: B1 VL with M4L, A9G, A25T, S30D, S31T, K53N
Regarding B2, the values for the OD450 nm in assay [1], in [2] and in [3] were 0.0741, 0.161 and 0.0777, respectively.

B3: L9G7 (antibody, V domains shown)
VH: B2 VH
VL: B1 VL with M4L, A9G, A25T, S30D, S31T, K53N
notes: From a human naive scFv phage library; also called human BLyS antibody L9G7
In the case of B3, the MFI in assay [4] worked out at 20.6 MFI; in assay [5] it was 591 MFI; in assay [6] it was 469 MFI; in assay [7], 1340 MFI; in assay [8], 101 MFI; in assay [9], 1010 MFI. Besides, the MFI came out at 387 MFI in assay [10], 143 MFI in [11] and 1280 MFI in [12].

B4: 111D10D6G3 (antibody, V domains shown)
VH: QVQLQQPGAELVKPGASVKMSCKASGYTFTRHWITWVKQRPGQGLEWIGDIFPGSGSINYNEKFKSEATLTVEKSSSTAYMQLSSLTSEDSAVYYCARGDVDVWGTGTTVTVSS
VL: DIQMTQSPSSLSASLGERVSLTCRASQEIRGYLSWLQQKPNGTIKRLIYAASTLDSGVPKRFSATRSGSDFSLTISSLESEDFADYYCLQYASYPFTFGSGTKLEIK
notes: Mouse hybridoma monoclonal antibody purified on Protein G
With B4, the MFI worked out at 20.4 MFI in [4]; 265 MFI in assay [5]; 247 MFI in assay [6]; 539 MFI in assay [7]; 32.4 MFI in assay [8]; 478 MFI in assay [9]. Besides, the results for the MFI in assay [10], in assay [11] and in assay [12] were 222 MFI, 108 MFI and 524 MFI, respectively.

B5: 111D10D6G3 (antibody, V domains shown)
VH: B4 VH
VL: B4 VL
notes: Mouse hybridoma antibody purified on Protein G
Turning to B5, the OD450 nm in assay [1] came out at 0.0525; in assay [2], 0.0538; in [3] it was 0.0549.

B6: 8E7D9C7F5 (antibody, V domains shown)
VH: QVQLQQSGVELARPGASVKLSCKASGYTFTSYGISWVKQRTGQALEWIGEIYPRSGNTYYNEKFKGKATLTADKSSSTAYMELRSLTSEDSAVYFCARSGPITTLVATDYGMDYWGQGTSVTVSS
VL: DIVLTQSPASLAVSLGQRATISCRASKSVSTSSYSYMHWYQQKPGQPPKLLIKFASNLESGVPARFSGSGSGTDFTLNIHPVEEEDAATYYCQHSREFPYTFGGGTKLEIK
notes: as for B4
B6: the MFI in [4] came to 19.8 MFI; in [5], 532 MFI; in [6] it was 504 MFI; in [7], 1170 MFI; in [8] it was 152 MFI; in [9] it was 1050 MFI. The results for the MFI in assay [10], in [11] and in assay [12] were 477 MFI, 165 MFI and 1170 MFI, respectively.

B7: 97A3C2H4 (antibody, V domains shown)
VH: EVKLVESGGGLVQPGGSLKLSCAASGFTFSTYTMSWVRQTPEKRLEWVAYISYGGGSTSYPDTVKGRFTISRDNAKNTLYLQMSSLKSEDTAIYYCTRHVTVVENSMDYWGQGTSVTVSS
VL: DILLTQSPDILSVSPGERVSFSCRASQSIGTSIHWYQQRTNGSPRLLIKYVSESFSGTPSRFSGSGSGTAFTLTINSVESEDIADYYCQQTHSWPWTFGGGTKLEIK
notes: as for B4
In the case of B7, the MFI in assay [4] worked out at 20 MFI; in assay [5], 448 MFI; in assay [6], 340 MFI; in assay [7] it was 987 MFI; in [8], 31.2 MFI; in assay [9], 682 MFI. Also, the results for the MFI in [10], in assay [11] and in assay [12] were 243 MFI, 120 MFI and 943 MFI, respectively.

B8: 97A3C2H4 (antibody, V domains shown)
VH: B7 VH
VL: B7 VL
notes: as for B5
For B8, the results for the OD450 nm in [1], in assay [2] and in assay [3] were 0.059, 0.0625 and 0.0559, respectively.

B9: L1D12 (antibody, V domains shown)
VH: QVQLVQSGGGLVQPGGSLRLSCAASGFTVSSNYMSWVRQAPGKGLEWVSVIYSGGSTYYADSVKGRFTISRDNSKNTLYLQMNSLRAEDTAVYYCARGFHDILTGYGMDVWGQGTTVTVSS
VL: SSELTQDPAVSVALGQTVRITCQGDSLRNYYAGWYQQKPGQAPVLVIYGKNNRPSGIPDRFSGSSSGNTASLTITGTQAEDEADYYCSSRDNSGTHLVEFGGGTKLTVL
notes: From a human naive scFv phage library; also called human BLyS antibody L1D12; LID12
In the case of B9, the MFI in assay [4] turned out to be 21.2 MFI; in assay [5], 503 MFI; in assay [6], 413 MFI; in assay [7], 1180 MFI; in [8], 101 MFI; in assay [9] it was 900 MFI. In addition, the MFI in assay [10] was 364 MFI; in [11], 135 MFI; in assay [12], 1130 MFI.

B10: L1D12 (antibody, human IgG1, V domains shown)
VH: B9 VH
VL: B9 VL
notes: also called LID12
With B10, the OD450 nm in [1] turned out to be 0.0757; in assay [2] it was 0.121; in [3], 0.0854.
